According to PMC13137973, “Tumor Necrosis Factor Receptor 2 Inhibits HIV-1 Infection by Blocking the Binding of gp120 to CD4” (International Journal of Biological Sciences, 2026):

Target: T1, human immunodeficiency virus 1 (HIV-1) (group M, subtype B, Isolate MN) gp120 Protein (HIV-1 (group M, subtype B, isolate MN), UniProt P05877 30-513)
T1 construct: also called gp120 core; His-tagged gp120; source: bought: Sino Biological (Catalog No: 40405-V08H)
Assay: ELISA; plates coated with human TNFR1 or TNFR2 (5 µg/mL, carbonate buffer pH 9.6, overnight 4 °C), blocked with 3% BSA; serial dilutions of gp120, 2 h room temperature; wash 20 mM Tris-HCl, 500 mM NaCl, 0.05% Tween-20, pH 7.5; bound gp120 detected with anti-His-HRP
Conditions: both partners purified

B1: human TNFR2 / CD120b protein, extracellular domain (residues 1-257) (domain or fragment, UniProt P20333-1 23-257, looked up)
chain: LPAQVAFTPYAPEPGSTCRLREYYDQTAQMCCSKCSPGQHAKVFCTKTSDTVCDSCEDSTYTQLWNWVPECLSCGSRCSSDQVETQACTREQNRICTCRPGWYCALSKQEGCRLCAPLRKCRPGFGVARPGTETSDVVCKPCAPGTFSNTTSSTDICRPHQICNVVAIPGNASMDAVCTSTSPTRSMAPGAVHLPQPVSTRSQHTQPTPEPSTAPSTSFLLPMGPSPPAEGSTGD
notes: also called tumor necrosis factor receptor type II; immobilized TNFR2; source: bought: Sino Biological (Catalog No: 10417-H08H)
B1: binds.
